Assay results published in patent US20150344570A1 (published 2015).

T1: FcγRIIb extracellular domain with C-terminal His tag (human, UniProt P31994 43-217)
T1 construct: extracellular domain; Soluble receptor expressed in FreeStyle293 cells and used as analyte in Biacore; also called FcgRIIb; 2b; not shown: His tag attached to the C terminus
T1 sequence (looked up): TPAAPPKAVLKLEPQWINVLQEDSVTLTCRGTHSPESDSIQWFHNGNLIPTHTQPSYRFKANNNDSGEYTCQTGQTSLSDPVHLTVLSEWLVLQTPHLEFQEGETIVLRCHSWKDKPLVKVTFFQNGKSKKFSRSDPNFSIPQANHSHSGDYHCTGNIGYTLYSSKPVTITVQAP

T2: FcγRIIb (human, UniProt P31994 43-217)
T2 construct: extracellular domain; Soluble extracellular domain with C-terminal His tag, used as analyte in Biacore; also called FcgRIIb; 2b; not shown: His tag attached to the C terminus
T2 sequence (looked up): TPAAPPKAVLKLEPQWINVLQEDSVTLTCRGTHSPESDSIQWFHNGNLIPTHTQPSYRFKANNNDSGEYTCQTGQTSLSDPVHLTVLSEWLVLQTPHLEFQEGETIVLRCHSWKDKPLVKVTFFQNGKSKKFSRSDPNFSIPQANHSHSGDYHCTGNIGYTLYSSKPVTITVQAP


Tests used:
[1] = biological target: T1, FcγRIIb extracellular domain with …; experiment: SPR (Biacore), antibody captured, FcγR as analyte; binding activity relative to control heterodimerized antibody
Description: (§1) The heterodimerized antibodies He Abs in which one of the H chains was introduced with an alteration were assayed for their binding activities to each activating FcγR and inhibitory FcγR according to the method described in Example 4. […] The activating FcγRs in FIGS. 26, 27, 28, and 29 are FcγRIa, FcγRIIa (R), FcγRIIa (H), and FcγRIIIa, respectively.
(§2) Analysis of interaction between objective antibody and the FcγR was carried out using Biacore T100 (GE Healthcare). HBS-EP+ (GE Healthcare) was used as the running buffer, and the measurement temperature was set to 25° C. Chips produced by immobilizing the antigen peptide by the amine coupling method to a Series S Sencor Chip CM5 (GE Healthcare), or alternatively, chips produced by allowing preliminarily biotinylated antigen peptides to interact with and immobilize onto a Series S Sensor Chip SA (certified) (GE Healthcare) were used. Antibodies of interest were captured onto an antigen peptide-immobilized chip, and allowed to interact to each FcγR diluted with running buffer. To regenerate and repeatedly use the chip, the antibodies captured on the chip were washed off by reacting 10 mM glycine-HCl, pH 1.5.

[2] = biological target: T3, FcγRIIIa extracellular domain with C-terminal His tag (human, UniProt P08637 17-208); experiment: as above
T3 construct: extracellular domain; also called FcgRIIIa; 3a; not shown: His tag attached to the C terminus
Description: as §1, §2

[3] = biological target: T3, FcγRIIIa extracellular domain with …; experiment: SPR (Biacore); He/Con_3a divided by He/Con_2b (FcγRIIIa over FcγRIIb)
Description: as §1, §2

FcγRIa [4] = biological target: T4, FcγRIa (human, UniProt P12314 16-292); experiment: SPR (Biacore); He/Con_1a divided by He/Con_2b (binding to FcγRIa against binding to FcγRIIb)
T4 construct: extracellular domain; Soluble extracellular domain with C-terminal His tag, used as analyte in Biacore; also called FcgRI; 1a; not shown: His tag attached to the C terminus
Description: as §1, §2

FcγRIIb = biological target: T2, FcγRIIb; experiment: SPR (Biacore), antibody captured, FcγR as analyte; relative to GpH7-A5/GpH7-B3/GpL16-k0 = 100
Description: as §1, §2

FcγRIa [5] = biological target: T4, FcγRIa; experiment: as above
Description: as §1, §2

T3 sequence (P08637 17-208): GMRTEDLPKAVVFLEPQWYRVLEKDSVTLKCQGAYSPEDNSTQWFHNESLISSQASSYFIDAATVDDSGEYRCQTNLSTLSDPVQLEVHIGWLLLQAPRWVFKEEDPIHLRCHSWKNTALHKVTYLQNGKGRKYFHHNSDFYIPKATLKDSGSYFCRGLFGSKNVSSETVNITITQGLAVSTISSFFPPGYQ
T4 sequence (P12314 16-292): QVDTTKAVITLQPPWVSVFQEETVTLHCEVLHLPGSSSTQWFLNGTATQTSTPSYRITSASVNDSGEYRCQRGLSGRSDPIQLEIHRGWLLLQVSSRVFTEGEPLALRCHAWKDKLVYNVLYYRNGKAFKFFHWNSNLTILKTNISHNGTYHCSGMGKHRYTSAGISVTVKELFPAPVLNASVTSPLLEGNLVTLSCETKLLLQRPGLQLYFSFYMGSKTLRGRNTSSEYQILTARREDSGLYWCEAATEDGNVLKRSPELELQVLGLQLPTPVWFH

Row | He/Con_2b [1] | He/Con_3a [2] | He_3a/2b [3] | He_1a/2b (Ia/IIb) (FcγRIa [4]) | He/Con_2b (FcγRIIb) | He/Con_1a (FcγRIa [5]) | Binder
1 | 58.1 % of GpH7-A5/GpH7-B3/GpL16-k0 (=100) | 74.1 % of GpH7-A5/GpH7-B3/GpL16-k0 (=100) | 1.28 ratio |  |  |  | GpH7-A5/GpH7-B3 variant P271_20W/GpL16-k0 (antibody, human IgG1, kappa, Heterodimerized anti-glypican-3 IgG1 with the alteration in only one H chain; also called He Ab) heavy 1: not shown heavy 2: not shown light: DIVMTQSPLSLPVTPGEPASISCQASESLVHSNRNTYLHWYLQKPGQSPQLLIYKVSNRFSGVPDRFSGSGSGTDFTLKISRVEAEDVGVYYCSQNTHVPPTFGQGTKVEIERTVAAPSVFIFPPSDEQLKSGTASVVCLLNNFYPREAKVQWKVDNALQSGNSQESVTEQDSKDSTYSLSSTLTLSKADYEKHKVYACEVTHQGLSSPVTKSFNRGEC
2 |  |  |  | 0.58 ratio | 167 % of control (=100) | 96.6 % of control (=100) | GpH7-A5/GpH7-B3 variant G236_09D/GpL16-k0 (antibody, human IgG1, kappa, Heterodimerized anti-glypican-3 IgG1; alteration in the GpH7-B3 chain only; also called He Ab) heavy 1: not shown heavy 2: not shown light: DIVMTQSPLSLPVTPGEPASISCQASESLVHSNRNTYLHWYLQKPGQSPQLLIYKVSNRFSGVPDRFSGSGSGTDFTLKISRVEAEDVGVYYCSQNTHVPPTFGQGTKVEIERTVAAPSVFIFPPSDEQLKSGTASVVCLLNNFYPREAKVQWKVDNALQSGNSQESVTEQDSKDSTYSLSSTLTLSKADYEKHKVYACEVTHQGLSSPVTKSFNRGEC

The remaining lines, values behind:

Row | Binder | He/Con_2b [1] | He/Con_3a [2] | He_3a/2b [3] | He_1a/2b (Ia/IIb) (FcγRIa [4]) | He/Con_2b (FcγRIIb) | He/Con_1a (FcγRIa [5])
3 | GpH7-A5/GpH7-B3 variant E269_07I/GpL16-k0 (antibody, human IgG1, kappa, Heterodimerized anti-glypican-3 IgG1 with the alteration in only one H chain; also called He Ab) heavy 1: not shown heavy 2: not shown light: DIVMTQSPLSLPVTPGEPASISCQASESLVHSNRNTYLHWYLQKPGQSPQLLIYKVSNRFSGVPDRFSGSGSGTDFTLKISRVEAEDVGVYYCSQNTHVPPTFGQGTKVEIERTVAAPSVFIFPPSDEQLKSGTASVVCLLNNFYPREAKVQWKVDNALQSGNSQESVTEQDSKDSTYSLSSTLTLSKADYEKHKVYACEVTHQGLSSPVTKSFNRGEC | 43.9 % of GpH7-A5/GpH7-B3/GpL16-k0 (=100) | 55.8 % of GpH7-A5/GpH7-B3/GpL16-k0 (=100) | 1.27 ratio |  |  | 
4 | GpH7-A5/GpH7-B3 variant G237_02A/GpL16-k0 (antibody, human IgG1, kappa, Heterodimerized anti-glypican-3 IgG1; alteration in the GpH7-B3 chain only; also called He Ab) heavy 1: not shown heavy 2: not shown light: DIVMTQSPLSLPVTPGEPASISCQASESLVHSNRNTYLHWYLQKPGQSPQLLIYKVSNRFSGVPDRFSGSGSGTDFTLKISRVEAEDVGVYYCSQNTHVPPTFGQGTKVEIERTVAAPSVFIFPPSDEQLKSGTASVVCLLNNFYPREAKVQWKVDNALQSGNSQESVTEQDSKDSTYSLSSTLTLSKADYEKHKVYACEVTHQGLSSPVTKSFNRGEC |  |  |  | 0.73 ratio | 124 % of control (=100) | 90.3 % of control (=100)
5 | GpH7-A5/GpH7-B3 variant E269_12R/GpL16-k0 (antibody, human IgG1, kappa, Heterodimerized anti-glypican-3 IgG1 with the alteration in only one H chain; also called He Ab) heavy 1: not shown heavy 2: not shown light: DIVMTQSPLSLPVTPGEPASISCQASESLVHSNRNTYLHWYLQKPGQSPQLLIYKVSNRFSGVPDRFSGSGSGTDFTLKISRVEAEDVGVYYCSQNTHVPPTFGQGTKVEIERTVAAPSVFIFPPSDEQLKSGTASVVCLLNNFYPREAKVQWKVDNALQSGNSQESVTEQDSKDSTYSLSSTLTLSKADYEKHKVYACEVTHQGLSSPVTKSFNRGEC | 25.2 % of GpH7-A5/GpH7-B3/GpL16-k0 (=100) | 43.2 % of GpH7-A5/GpH7-B3/GpL16-k0 (=100) | 1.72 ratio |  |  | 
6 | GpH7-A5/GpH7-B3 variant E269_19Q/GpL16-k0 (antibody, human IgG1, kappa, Heterodimerized anti-glypican-3 IgG1 with the alteration in only one H chain; also called He Ab) heavy 1: not shown heavy 2: not shown light: DIVMTQSPLSLPVTPGEPASISCQASESLVHSNRNTYLHWYLQKPGQSPQLLIYKVSNRFSGVPDRFSGSGSGTDFTLKISRVEAEDVGVYYCSQNTHVPPTFGQGTKVEIERTVAAPSVFIFPPSDEQLKSGTASVVCLLNNFYPREAKVQWKVDNALQSGNSQESVTEQDSKDSTYSLSSTLTLSKADYEKHKVYACEVTHQGLSSPVTKSFNRGEC | 44.3 % of GpH7-A5/GpH7-B3/GpL16-k0 (=100) | 65 % of GpH7-A5/GpH7-B3/GpL16-k0 (=100) | 1.47 ratio |  |  | 
7 | GpH7-A5/GpH7-B3 variant E269_11K/GpL16-k0 (antibody, human IgG1, kappa, Heterodimerized anti-glypican-3 IgG1 with the alteration in only one H chain; also called He Ab) heavy 1: not shown heavy 2: not shown light: DIVMTQSPLSLPVTPGEPASISCQASESLVHSNRNTYLHWYLQKPGQSPQLLIYKVSNRFSGVPDRFSGSGSGTDFTLKISRVEAEDVGVYYCSQNTHVPPTFGQGTKVEIERTVAAPSVFIFPPSDEQLKSGTASVVCLLNNFYPREAKVQWKVDNALQSGNSQESVTEQDSKDSTYSLSSTLTLSKADYEKHKVYACEVTHQGLSSPVTKSFNRGEC | 17.8 % of GpH7-A5/GpH7-B3/GpL16-k0 (=100) | 44 % of GpH7-A5/GpH7-B3/GpL16-k0 (=100) | 2.47 ratio |  |  | 
